According to PMC9855569, “Construction of Bi-Enzyme Self-Assembly Clusters Based on SpyCatcher/SpyTag for the Efficient Biosynthesis of (R)-Ethyl 2-hydroxy-4-phenylbutyrate” (Biomolecules, 2023):

Substrate: CCOC(=O)C(=O)CCc1ccccc1
Assay: purified protein
Type: biochemical, Lodderomyces parapsilosis
Settings: apparent constant, free enzymes (CpCR with GDH), NADPH co-substrate, pH 7.0, 30 °C, OPBE 10-50 mM

B1: CpCR (Lodderomyces parapsilosis) (protein)
chain: MTKAVPDKFQGFAVSDPKNWNRPKLASYERKQINPHDVVLKNEVCGLCYSDIHTLSAGWQPLQRDNLVVGHEIIGEVIAVGDEVTEFKVGDRVGIGAASSSCRSCQRCDSDNEQYCKQGAATYNSKDVRSNNYVTQGGYSSHSIADEKFVFAIPEDLPSSYGAPLMCAGITVFSPLIRNLGLDARGKNVGIIGIGGLGHLALQFANAMGANVTAFSRSSSKKEQAMKLGAHDFVATGEDKTWYKNYDDHFDFILNCASGIDGLNLSEYLSTLKVDKKFVSVGLPPSEDKFEVSPFTFLQQGASFGSSLLGSKTEVKEMLNLAAKHNVRPMIEEVPISEENCAKALDRCHAGDVRYRFVFTDFDKAFKA
notes: full length, 6xHis tag, recombinant in E. coli BL21(DE3), 41 kDa; free (unassembled) enzyme, in the free bi-enzyme system with GDH
B1 gave a Km of 23.94 mM, a kcat of 1.76 s⁻¹ and a kcat/Km of 74 M⁻¹ s⁻¹.
